Data as given in publication PMC8115288 (2021).

Tests used:
[1] = molecular target: T1, GST-CTD (C-terminal domain of HIV-1 integrase, aa 201-288) (HIV-1 (Hx3B), UniProt P04585 1348-1435); test: GST-CTD 0.027 uM
T1 chain: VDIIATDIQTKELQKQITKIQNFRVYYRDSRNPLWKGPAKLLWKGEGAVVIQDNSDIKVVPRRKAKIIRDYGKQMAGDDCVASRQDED

[2] = molecular target: T1, GST-CTD (C-terminal domain of HIV-1 …); test: GST-CTD 0.083 uM

B1: His6-SUMO-INI1_(183-304) (domain or fragment)
chain: PEVLVPIRLDMEIDGQKLRDAFTWNMNEKLMTPEMFSEILCDDLDLNPLTFVPAIASAIRQQIESYPTDSILEDQSDQRVIIKLNIHVGNISLVDQFEWDMSEKENSPEKFALKLCSELGLG
B1 showed a Kd [1] of 3.5 nM and a Kd [2] of 3 nM.
